The values below come from PMC6561022, “β-Lactam Antibiotics Enhance the Pathogenicity of Methicillin-Resistant Staphylococcus aureus via SarA-Controlled Lipoprotein-Like Cluster Expression”.

This data set deals with T1, SarA-his (Staphylococcus aureus N315, UniProt Q7A732 1-124).
T1 sequence: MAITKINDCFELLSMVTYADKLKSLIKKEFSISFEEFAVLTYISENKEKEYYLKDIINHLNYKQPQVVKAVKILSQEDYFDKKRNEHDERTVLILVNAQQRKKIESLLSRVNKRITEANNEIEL
Kind of data set: EMSA; SarA-his 0-240 pM (so in the source), 10 pmol DNA; 10 mM HEPES pH 7.6, 1 mM EDTA, 2 mM DTT, 50 mM KCl, 0.05% Triton X-100, 5% glycerol; 20 min room temperature; […]. The note with it: protein: recombinant; tags: N-terminal His6 (pET28a); chain copies: 2; label: none (GelRed stain); blunt.

B1: lpl-P (lpl cluster promoter, SarA box) (dsDNA)
DNA 1: CCACGAGGATTTAATCATAAAATTTCCTCTAGTATTATTAATATTGGAATTTGAAC
DNA 2: GTTCAAATTCCAATATTAATAATACTAGAGGAAATTTTATGATTAAATCCTCGTGG
For the molecule B1, the binding result is “binds”.

B2: lpl-PM (GC-rich SarA box mutant) (dsDNA)
DNA 1: CCACGAGGGGGGGGGCGGGGGGGTTCCTCTAGTATTATTAATATTGGAATTTGAAC
DNA 2: GTTCAAATTCCAATATTAATAATACTAGAGGAACCCCCCCGCCCCCCCCCTCGTGG
As for B2, the binding result is “no binding”.
